The target in data set [1] is T1, NF90long;NF45 (Mus musculus;Homo sapiens, UniProt Q9Z1X4;Q12905 1-591;1-390, |). Nature of the data set: SEC and EDC cross-linking (SDS-PAGE, CLMS); protein:RNA 1:1 and 2:1; 18-bp complex formation: 30 min on ice, SEC in 20 mM HEPES pH 7.5, 150 mM NaCl, 1 mM DTT; mass photometry at 10-50 nM protein; SAXS and EM buffers not in the material. The following applies: protein: recombinant;recombinant; tags: C-terminal 6xHis (non-cleavable);N-terminal GST, removed with 3C protease; copies: 1;1; blunt.

In data set [2] the target is T1, NF90long;NF45. Kind of data set: SEC-SAXS; mass photometry; protein:RNA 2:1 and 4:1; RNA saturated at 4:1; 18-bp complex formation: 30 min on ice, SEC in 20 mM HEPES pH 7.5, 150 mM NaCl, 1 mM DTT; mass photometry at 10-50 nM protein; SAXS and EM buffers not in the material. The following applies: protein: recombinant;recombinant; tags: C-terminal 6xHis (non-cleavable);N-terminal GST, removed with 3C protease; copies: 1;1; S13 is labelled 3'-5' but pairs only if read 5'-3' (18 bp, 7-nt 3' tails). Background: SEC sorts molecules by how far they enter the pores of the column.

The target of data set [3] is T1, NF90long;NF45. Nature of the data set: quantitative EDC CLMS; 18-bp complex formation: 30 min on ice, SEC in 20 mM HEPES pH 7.5, 150 mM NaCl, 1 mM DTT; mass photometry at 10-50 nM protein; SAXS and EM buffers not in the material. Particulars: protein: recombinant;recombinant; tags: C-terminal 6xHis (non-cleavable);N-terminal GST, removed with 3C protease; copies: 1;1; blunt.

The target in data set [4] is T1, NF90long;NF45. Kind of data set: SEC-SAXS; mass photometry; not more than 4 heterodimers per RNA (SAXS); up to 3 by mass photometry; 18-bp complex formation: 30 min on ice, SEC in 20 mM HEPES pH 7.5, 150 mM NaCl, 1 mM DTT; mass photometry at 10-50 nM protein; SAXS and EM buffers not in the material. Particulars: protein: recombinant;recombinant; tags: C-terminal 6xHis (non-cleavable);N-terminal GST, removed with 3C protease; copies: 1;1; blunt.

B1: 18-bp 2'-fluoro dsRNA (EDC) (XNA)
RNA 1: UCACUUUCAUAAUGCUGG
RNA 2: CCAGCAUUAUGAAAGUGA
modifications: uniform 2'-fluoro (printed beside the top strand; Methods call the duplex 2'-fluorinated)
With B1, the binding result in the data set with NF90long;NF45 [1] was “binds”.

B2: 25-bp dsRNA (SAXS) (dsRNA)
RNA 1: UCACUUUCAUAAUGCUGGUCACUUU
RNA 2: CCAGCAUUAUGAAAGUGACCAGCAU
Regarding B2, the binding result in the data set with NF90long;NF45 [2] is on record as “binds”.

B3: 25-bp GC-rich dsRNA (CLMS) (dsRNA)
RNA 1: GCCGCGGAGGCCCCGCCGUGGGCCC
RNA 2: GGGCCCACGGCGGGGCCUCCGCGGC
Take B3: the binding result with NF90long;NF45 [3] is “binds”.

B4: 54-bp dsRNA (SAXS) (dsRNA)
RNA 1: UCACUUUCAUAAUGCUGGUCACUUUCAUAAUGCUGGUCACUUUCAUAAUGCUGG
RNA 2: CCAGCAUUAUGAAAGUGACCAGCAUUAUGAAAGUGACCAGCAUUAUGAAAGUGA
On to B4, for which, in the data set with NF90long;NF45 [4], the binding result is “binds”.
